This note sets out measurements from patent US20070219354.

For the series, the target named is T1, coumarin-CO-REVNFEVEFR
T1 chain: REVNFEVEFR

B1: BACE 1, soluble (transmembrane domain and cytoplasmic extension excluded) human protein produced in a baculovirus expression system (protein)
chain: TQHGIRLPLRSGLGGAPLGLRLPRETDEEPEEPGRRGSFVEMVDNLRGKSGQGYYVEMTVGSPPQTLNILVDTGSSNFAVGAAPHPFLHRYYQRQLSSTYRDLRKGVYVPYTQGKWEGELGTDLVSIPHGPNVTVRANIAAITESDKFFINGSNWEGILGLAYAEIARPDDSLEPFFDSLVKQTHVPNLFSLQLCGAGFPLNQSEVLASVGGSMIIGGIDHSLYTGSLWYTPIRREWYYEVIIVRVEINGQDLKMDCKEYNYDKSIVDSGTTNLRLPKKVFEAAVKSIKAASSTEKFPDGFWLGEQLVCWQAGTTPWNIFPVISLYLMGEVTNQSFRITILPQQYLRPVEDVATSQDDCYKFAISQSSTGTVMGAVIMEGFYVVFDRARKRIGFAVSACHVHDEFRTAAVEGPFVTLDMEDCGYNIPQTDESTLMT
Consider B1, for which the “substrate processed (end point HPLC assay, 2 nM enzyme, 1.0 µM substrate, 30 min)” value was “less than 10% of substrate is processed by BACE 1”.
